Measurements taken from article PMC3183022 (Molecular Biology of the Cell, 2011).

B1: recombinant His-tagged endophilin A1 (natural protein, mouse, UniProt Q62420 1-352, looked up)
chain: MSVAGLKKQFHKATQKVSEKVGGAEGTKLDDDFKEMERKVDVTSRAVMEIMTKTIEYLQPNPASRAKLSMINTMSKIRGQEKGPGYPQAEALLAEAMLKFGRELGDDCNFGPALGEVGEAMRELSEVKDSLDMEVKQNFIDPLQNLHDKDLREIQHHLKKLEGRRLDFDYKKKRQGKIPDEELRQALEKFDESKEIAESSMFNLLEMDIEQVSQLSALVQAQLEYHKQAVQILQQVTVRLEERIRQASSQPRREYQPKPRMSLEFATGDSTQPNGGLSHTGTPKPPGVQMDQPCCRALYDFEPENEGELGFKEGDIITLTNQIDENWYEGMLHGQSGFFPINYVEILVALPH
B2: GST-tagged endophilin A1 SH3 domain (aa 295–346) (domain or fragment)
chain: not shown

Assays:
[1] = biological target: mouse retrolinkin amino-terminus (amino acids 31–460) fused to GST (mouse, UniProt Q8BHE4 31-460); assay: pull-down
Sequence of mouse retrolinkin amino-terminus (amino acids 31–460) fused to GST (Q8BHE4 31-460): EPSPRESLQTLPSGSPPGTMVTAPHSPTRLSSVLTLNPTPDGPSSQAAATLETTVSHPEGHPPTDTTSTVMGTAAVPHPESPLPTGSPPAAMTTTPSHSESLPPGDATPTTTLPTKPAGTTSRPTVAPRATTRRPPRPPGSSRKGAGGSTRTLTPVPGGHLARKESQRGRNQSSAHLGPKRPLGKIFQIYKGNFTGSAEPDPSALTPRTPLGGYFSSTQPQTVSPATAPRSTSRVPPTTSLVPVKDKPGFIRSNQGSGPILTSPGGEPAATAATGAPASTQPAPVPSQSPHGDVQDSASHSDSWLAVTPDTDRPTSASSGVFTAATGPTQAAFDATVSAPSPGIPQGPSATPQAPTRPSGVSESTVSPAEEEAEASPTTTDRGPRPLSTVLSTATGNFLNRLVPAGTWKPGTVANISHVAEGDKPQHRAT

[2] = biological target: His-tagged retrolinkin (aa 31–460) (mouse, UniProt Q8BHE4 31-460); assay: pull-down
Sequence of His-tagged retrolinkin (aa 31–460) (Q8BHE4 31-460): as above

| binding result [1] | binding result [2] | Binder |
| --- | --- | --- |
| binds |  | B1 |
|  | binds | B2 |
